This is an account of results in patent US20150165065A1 (AVIDBIOTICS, published 2015).

Substitutions are numbered along the chain they refer to.

The target in test [1] is the targeted integrin. Description: cell-based or functional assay.
For test [2], the target named is T1, integrin αVβ3 (UniProt P06756 31-992; P05106 27-718).
T1 construct: Coated on the ELISA plate
Description: ELISA, coated integrin, anti-MICA-HRP. The procedure: (§1) ELISA assays of the integrin target-binding of soluble MICA molecules generated from pKK128-131 were performed as follows. After the respective integrins were adhered to the bottoms of the wells of the ELISA plate, the wells were washed and blocked. Each sample (100 μl) of culture supernatant was added to wells containing αVβ3 or αVβ5, incubated and washed. The soluble MICA molecules captured by the integrins were detected by HRP-conjugated antibody to human MICA developed with Ultra TMB-ELISA substrate and the optical densities read. The quantity of soluble MICA in each sample was determined by the MICA-specific ELISA.
Background: An ELISA detects its analyte on a solid surface through an enzyme-linked reagent.

For test [3], the target named is T2, integrin αVβ5 (UniProt P06756 31-992; P18084 24-719).
T2 construct: Coated on the ELISA plate
T2 sequence (P06756 31-992, chain 1 of 2): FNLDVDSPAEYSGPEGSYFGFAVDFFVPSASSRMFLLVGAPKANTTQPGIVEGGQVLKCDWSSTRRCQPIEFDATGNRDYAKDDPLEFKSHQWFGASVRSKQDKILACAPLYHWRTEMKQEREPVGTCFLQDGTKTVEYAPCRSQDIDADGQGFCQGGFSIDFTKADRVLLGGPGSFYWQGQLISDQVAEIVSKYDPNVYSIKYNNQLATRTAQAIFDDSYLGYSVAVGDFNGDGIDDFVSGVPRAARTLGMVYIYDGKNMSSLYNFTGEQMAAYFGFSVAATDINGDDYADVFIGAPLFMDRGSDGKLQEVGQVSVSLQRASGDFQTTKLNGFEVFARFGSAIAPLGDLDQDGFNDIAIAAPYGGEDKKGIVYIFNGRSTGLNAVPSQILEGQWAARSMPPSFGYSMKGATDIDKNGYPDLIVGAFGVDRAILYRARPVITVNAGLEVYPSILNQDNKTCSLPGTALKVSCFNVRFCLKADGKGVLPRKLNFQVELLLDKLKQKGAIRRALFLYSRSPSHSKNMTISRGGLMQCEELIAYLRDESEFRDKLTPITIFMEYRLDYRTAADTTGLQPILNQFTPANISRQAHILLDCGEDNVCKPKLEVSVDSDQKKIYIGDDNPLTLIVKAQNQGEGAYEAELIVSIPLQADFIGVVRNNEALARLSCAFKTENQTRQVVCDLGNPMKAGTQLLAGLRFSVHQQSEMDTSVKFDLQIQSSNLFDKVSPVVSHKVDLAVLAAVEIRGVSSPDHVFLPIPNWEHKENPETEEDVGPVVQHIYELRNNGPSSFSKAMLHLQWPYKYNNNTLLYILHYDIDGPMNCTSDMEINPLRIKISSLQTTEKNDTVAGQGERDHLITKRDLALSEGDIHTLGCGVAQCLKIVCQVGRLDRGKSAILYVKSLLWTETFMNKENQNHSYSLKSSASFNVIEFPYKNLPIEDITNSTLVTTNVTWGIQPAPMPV
T2 sequence (P18084 24-719, chain 2 of 2): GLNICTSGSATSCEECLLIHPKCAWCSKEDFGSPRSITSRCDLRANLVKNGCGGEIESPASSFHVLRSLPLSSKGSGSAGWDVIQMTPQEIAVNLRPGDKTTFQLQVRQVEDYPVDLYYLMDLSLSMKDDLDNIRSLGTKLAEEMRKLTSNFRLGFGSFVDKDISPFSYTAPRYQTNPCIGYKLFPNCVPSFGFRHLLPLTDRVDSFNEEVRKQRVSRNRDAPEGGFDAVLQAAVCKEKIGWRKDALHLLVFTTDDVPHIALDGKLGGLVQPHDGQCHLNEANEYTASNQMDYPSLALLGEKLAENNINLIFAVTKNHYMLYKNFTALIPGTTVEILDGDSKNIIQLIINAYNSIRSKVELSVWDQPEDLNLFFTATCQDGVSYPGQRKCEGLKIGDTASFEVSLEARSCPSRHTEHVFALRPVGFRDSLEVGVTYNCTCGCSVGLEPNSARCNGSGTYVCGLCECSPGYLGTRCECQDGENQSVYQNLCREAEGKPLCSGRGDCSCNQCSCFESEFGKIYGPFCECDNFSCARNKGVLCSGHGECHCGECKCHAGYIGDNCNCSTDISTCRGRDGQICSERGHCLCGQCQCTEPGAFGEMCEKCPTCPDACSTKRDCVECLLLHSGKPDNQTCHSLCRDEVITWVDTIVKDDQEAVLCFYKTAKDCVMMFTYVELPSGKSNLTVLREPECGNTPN
Nature of the test: ELISA, coated integrin, anti-MICA-HRP. The procedure:
as §1

For test [4], the target named is T1, integrin αVβ3. Nature of the test: phage ELISA, coated integrin, anti-M13-HRP. Here is the method: (§2) The phage vectors were independently transformed into NEBαF′tet competent E. coli cells. Phages produced by the transformed cells were tittered and their concentrations adjusted by dilution to 10¹³ per ml. The ability of the soluble MICA molecules in each of the phage preparations was assayed by an ELISA using the intended target proteins, integrin αVβ3 or αVβ5, as capture agents on the ELISA plate. After the respective integrins were adhered to the bottoms of the wells of the ELISA plate, the wells were washed and blocked, as well known in the field. Each sample (100 μl) of phage preparation was added to wells containing αVβ3 or αVβ5, incubated and washed. The phages captured by the integrins were detected by HRP-conjugated antibody to the M13 phage coat developed with Ultra TMB-ELISA substrate and the optical densities read.

The target in test [5] is T2, integrin αVβ5. Description: phage ELISA, coated integrin, anti-M13-HRP. Here is the method:
as §2

T1 sequence (P06756 31-992, chain 1 of 2): as the sequence (P06756 31-992, chain 1 of 2) above
T1 sequence (P05106 27-718, chain 2 of 2): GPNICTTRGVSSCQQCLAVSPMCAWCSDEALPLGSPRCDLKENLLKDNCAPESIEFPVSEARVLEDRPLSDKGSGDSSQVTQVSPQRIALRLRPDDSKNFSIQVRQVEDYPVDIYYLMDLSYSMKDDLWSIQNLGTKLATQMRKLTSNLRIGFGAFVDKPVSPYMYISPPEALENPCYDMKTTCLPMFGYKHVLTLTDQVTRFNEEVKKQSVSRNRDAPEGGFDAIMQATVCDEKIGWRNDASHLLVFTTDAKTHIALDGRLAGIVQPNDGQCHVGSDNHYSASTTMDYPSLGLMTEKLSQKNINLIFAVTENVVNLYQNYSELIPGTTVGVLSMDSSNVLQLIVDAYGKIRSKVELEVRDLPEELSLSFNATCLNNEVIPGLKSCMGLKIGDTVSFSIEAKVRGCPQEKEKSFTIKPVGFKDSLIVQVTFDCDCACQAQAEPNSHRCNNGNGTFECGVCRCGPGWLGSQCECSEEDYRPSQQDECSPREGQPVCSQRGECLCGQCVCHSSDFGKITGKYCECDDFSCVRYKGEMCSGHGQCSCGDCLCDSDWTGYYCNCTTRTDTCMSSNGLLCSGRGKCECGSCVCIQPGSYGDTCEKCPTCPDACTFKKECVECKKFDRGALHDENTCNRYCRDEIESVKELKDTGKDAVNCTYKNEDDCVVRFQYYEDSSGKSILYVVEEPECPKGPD

B1: soluble MICA generated from pKK131 (loop 1 extended 5.1sp, loop 3 extended 5.1spNH) (designed binder)
chain: HHHHHHEPHSLRYNLTVLSWDGSVQSGFLTEVHLDGQPFLRCDRQKCRAKPQGQWAEDVLGNKTWDRETRDLTGNGKDLRMTLAHIKDQKEGLHSLQEIRVCEIHEDNSTRSSQHFYYDGELFLSQNLETEEWTMPQSSRAQTLAMNVRNFLKEDAMKTKTHYHAMHADCLQELRRYLKSGVVLRRTVPPMVNVTSGGSGGGSVTRGDTFTQSSGGSGGGVTCRASGFYPWNITLSWRQDGVSLSHDTQQWGDVLPDGNGTYQTWVATRISGGSGGGSVTRGDTFTQSSGGSGGGCYMEHSGNHSTHPVPSGK
As for B1, in test [1], the green fluorescent signal from live MCF cells; 64 pg targeted MICA, NK 5:1 came to 5180 fluorescence; the green fluorescent signal from live MCF cells; 64 pg targeted MICA, NK 10:1 is 3700 fluorescence; the green fluorescent signal from live MCF cells; 64 pg targeted MICA, no NK cells was 5030 fluorescence; the green fluorescent signal from live MCF cells; 128 pg targeted MICA, NK 5:1 worked out at 3460 fluorescence. In test [1], the green fluorescent signal from live MCF cells; 128 pg targeted MICA, NK 10:1 is 2190 fluorescence; the red fluorescent signal from (dead) MCF cells; 64 pg targeted MICA, NK 5:1 came out at 27 fluorescence; the red fluorescent signal from (dead) MCF cells; 64 pg targeted MICA, NK 10:1 is 31 fluorescence; the red fluorescent signal from (dead) MCF cells; 64 pg targeted MICA, no NK cells was 19.9 fluorescence. For the same molecule, in test [1], the red fluorescent signal from (dead) MCF cells; 128 pg targeted MICA, NK 5:1 came to 25.6 fluorescence and the red fluorescent signal from (dead) MCF cells; 128 pg targeted MICA, NK 10:1 came to 41 fluorescence.

B2: soluble MICA generated from pKK128 (loop 1 extended 5.1sp, loop 3 extended 3.2sp) (designed binder)
chain: B1 chain with V279T, T280S, T284H, F285P, T286R, Q287T, S288Q
notes: From pKK115 (from pKK46: His6, Glu125); secreted by 293T cells; also called 1-5.1sp/3-3.2sp
For the molecule B2, in test [2], the αvβ3 signal worked out at 0.811 OD and the αvβ3 signal/ng was determined as 22.9 signal/ng MICA. In test [3], this molecule yielded a αvβ5 signal of 1 OD and a αvβ5 signal/ng of 28.3 signal/ng MICA.

B3: soluble MICA generated from pKK130 (loop 1 extended 5.1sp, loop 3 extended 5.3sp) (designed binder)
chain: B1 chain with V279H, T280L, R281A, G282R, D283G, T284D, F285D, T286L, Q287T, S288Y
notes: From pKK115 (from pKK46: His6, Glu125); secreted by 293T cells; also called 1-5.1sp/3-5.3sp
On to B3, for which, in test [2], the αvβ3 signal was found to be 0.606 OD and the αvβ3 signal/ng was 19.6 signal/ng MICA. In test [3], this molecule displayed a αvβ5 signal of 0.832 OD and a αvβ5 signal/ng of 26.9 signal/ng MICA.

B4: M13 phage pKK101 displaying MICA α3 domain with loop 1 insert 3.3sp (designed binder)
chain: TVPPMVNVTSGGSGGGSRVPRGDSDLTSGGSGGGVTCRASGFYPWNITLSWRQDGVSLSHDTQQWGDVLPDGNGTYQTWVATRICQGEEQRFTCYMEHSGNHSTHPVPSGK
notes: also called 1-3.3sp; not shown: C-terminal portion of M13 gene III protein, fused at codon position 198
Molecule B4 registered a αvβ3 signal in test [4] of 1.49 OD. The molecule further displayed a αvβ5 signal in test [5] of 1.23 OD.

B5: M13 phage pKK105 displaying MICA α3 domain with loop 3 insert 3.3sp (designed binder)
chain: TVPPMVNVTRSEASEGNITVTCRASGFYPWNITLSWRQDGVSLSHDTQQWGDVLPDGNGTYQTWVATRISGGSGGGSRVPRGDSDLTSGGSGGGCYMEHSGNHSTHPVPSGK
notes: also called 3-3.3sp; not shown: C-terminal portion of M13 gene III protein, fused at codon position 198
Molecule B5 gave a αvβ3 signal in test [4] of 1.33 OD. The αvβ5 signal in test [5] is 1.11 OD.

B6: M13 phage pKK107 displaying MICA α3 domain with tight loop 1 insert T-3.1 (designed binder)
chain: TVPPMVNTSRGDHPRTQCRASGFYPWNITLSWRQDGVSLSHDTQQWGDVLPDGNGTYQTWVATRICQGEEQRFTCYMEHSGNHSTHPVPSGK
notes: also called 1-T-3.1; not shown: C-terminal portion of M13 gene III protein, fused at codon position 198
B6 displayed a αvβ3 signal in test [4] of 0.999 OD. The αvβ5 signal in test [5] was 1.49 OD.

B7: M13 phage pKK111 displaying MICA α3 domain with tight loop 1 insert T-5.3 (designed binder)
chain: B6 chain with T8H, S9L, R10A, G11R, D12G, H13D, P14D, R15L, Q17Y
notes: also called 1-T-5.3; not shown: C-terminal portion of M13 gene III protein, fused at codon position 198
In test [4], B7 displayed a αvβ3 signal of 0.707 OD. In test [5], this molecule returned a αvβ5 signal of 0.657 OD.

B8: M13 phage pKK108 displaying MICA α3 domain with tight loop 1 insert T-3.5 (designed binder)
chain: B6 chain with T8G, H13S, P14L, R15I, T16M, Q17H
notes: also called 1-T-3.5; not shown: C-terminal portion of M13 gene III protein, fused at codon position 198
The molecule B8 registered a αvβ3 signal in test [4] of -0.09 OD. The molecule further displayed a αvβ5 signal in test [5] of -0.204 OD.

B9: M13 phage pKK110 displaying MICA α3 domain with tight loop 1 insert T-5.1 (designed binder)
chain: B6 chain with T8V, S9T, H13T, P14F, R15T, T16Q, Q17S
notes: also called 1-T-5.1; not shown: C-terminal portion of M13 gene III protein, fused at codon position 198
Molecule B9 came in with a αvβ3 signal in test [4] of 1.49 OD. Further, the αvβ5 signal in test [5] came out at 2.56 OD.
